In patent US20250289901A1 (CHONGQING GENRIX BIOPHARMACEUTICAL, published 2025):

T1: extracellular region of human BCMA with C-terminal His tag (human, UniProt Q02223 1-54)
T1 construct: No linker between the extracellular region and the tag is stated; also called hBCMA-his; hBCMA-His
T1 sequence: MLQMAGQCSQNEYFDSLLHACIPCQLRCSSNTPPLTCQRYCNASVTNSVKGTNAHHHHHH

T2: BCMA on the surface of NCI-H929 human plasma cell leukemia cell (human, UniProt Q02223 1-184)
T2 construct: whole, on cells; also called BCMA positive NCI-H929 cells; BCMA-positive tumor cells
T2 sequence (looked up): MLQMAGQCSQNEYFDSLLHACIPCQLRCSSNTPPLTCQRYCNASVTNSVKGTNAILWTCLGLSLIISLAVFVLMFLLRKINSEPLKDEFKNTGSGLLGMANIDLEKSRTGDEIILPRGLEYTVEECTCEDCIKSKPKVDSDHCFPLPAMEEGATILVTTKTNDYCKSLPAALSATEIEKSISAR

B1: anti-CD3E monoclonal antibody H10B7+L9B9 (antibody, human IgG1, kappa, V domains shown)
VH: QVQLVESGGGVVQPGRSLRLSCAASGFKFSGYGMHWVRQAPGKGLEWVAVIWFDGSRKYYVDSVKGRFTISRDNSKNTLYLQMNSLRAEDTAVYYCARQMGYWHFGLWGRGTLVTVSS
VL: DIQMTQSPSSLSASVGDRVTITCRASQSISNYLTWYQQKPGKAPKLLIYEASSRPSGVPSRFSGSGSGTDFTLTISSLQPEDFATYYCQQWSRLPVTFGQGTKVEIKR
B2: anti-BCMA monoclonal antibody H13F1+L9B9 (antibody, human IgG1, kappa, V domains shown)
VH: QVQLVQSGAEVKKPGSSVKVSCKASGYTFTNYWMHWVRQAPGQGLEWMGATYRGHSDTYYNQKFKGRVTITADKSTSTAYMELSSLRSEDTAVYYCTRGAVYAGYDVLDYWGQGTTVTVSS
VL: B1 VL
notes: also called mutant of C4 (IgG1 subtype)
B3: bispecific antibody CD3ExBCMA (bispecific antibody, human IgG1, kappa)
heavy 1: QVQLVESGGGVVQPGRSLRLSCAASGFKFSGYGMHWVRQAPGKGLEWVAVIWFDGSRKYYVDSVKGRFTISRDNSKNTLYLQMNSLRAEDTAVYYCARQMGYWHFGLWGRGTLVTVSSASTKGPSVFPLAPSSKSTSGGTAALGCLVKDYFPEPVTVSWNSGALTSGVHTFPAVLQSSGLYSLSSVVTVPSSSLGTQTYICNVNHKPSNTKVDKRVEPKSCDKTHTCPPCPAPEFEGGPSVFLFPPKPKDTLMISRTPEVTCVVVDVSHEDPEVKFNWYVDGVEVHNAKTKPREEQYNSTYRVVSVLTVLHQDWLNGKEYKCKVSNKALPASIEKTISKAKGQPREPQVYTLPPCREEMTKNQVSLWCLVKGFYPSDIAVEWESNGQPENNYKTTPPVLDSDGSFFLYSKLTVDKSRWQQGNVFSCSVMHEALHNHYTQKSLSLSPGK
heavy 2: QVQLVQSGAEVKKPGSSVKVSCKASGYTFTNYWMHWVRQAPGQGLEWMGATYRGHSDTYYNQKFKGRVTITADKSTSTAYMELSSLRSEDTAVYYCTRGAVYAGYDVLDYWGQGTTVTVSSASTKGPSVFPLAPSSKSTSGGTAALGCLVKDYFPEPVTVSWNSGALTSGVHTFPAVLQSSGLYSLSSVVTVPSSSLGTQTYICNVNHKPSNTKVDKRVEPKSCDKTHTCPPCPAPEFEGGPSVFLFPPKPKDTLMISRTPEVTCVVVDVSHEDPEVKFNWYVDGVEVHNAKTKPREEQYNSTYRVVSVLTVLHQDWLNGKEYKCKVSNKALPASIEKTISKAKGQPREPQVCTLPPSREEMTKNQVSLSCAVKGFYPSDIAVEWESNGQPENNYKTTPPVLDSDGSFFLVSKLTVDKSRWQQGNVFSCSVMHEALHNHYTQKSLSLSPGK
light: not shown
notes: It is a knob-into-hole IgG1 heterodimer with a common light chain; also called CD3E × BCMA; CD3 × BCMA

Columns and labels:
[1] = target: T3, CD3E on the surface of Jurkat human acute T lymphocyte leukemia cell (human, UniProt P07766 23-207); experiment: flow cytometry on Jurkat cells, goat anti-human IgG-FITC
T3 construct: whole, on cells; also called CD3 positive Jurkat cells
Protocol: Jurkat human acute T-lymphocyte leukemia cells (Cell Resource Center, Institute of Basic Medicine, Chinese Academy of Medical Sciences) in the logarithmic growth phase were harvested, centrifuged, and resuspended in PBS buffer containing 1% BSA to 2×10⁶ cells/mL, and plated at 100 μL/well in 96-well V bottom plates. […] Next, the cells were washed three times with 200 μL of PBS solution, and suspended in 100 μL of PBS solution. Thereafter, the FITC channel was detected by flow cytometer (ACEA, Novocyte).

[2] = target: T1, extracellular region of human BCMA with …; experiment: bridging ELISA: CD3E-FcK/CD3D-FcH coated, antibody, then BCMA-His, detected with HRP anti-His
Protocol: A 96-well ELISA plate was coated with CD3E-FcK/CD3D-FcH antigen (3 μg/mL, 100 μL/well), and was coated overnight in a refrigerator at 4° C. […] The ELISA plate was washed with PBS-0.1% Tween 20, followed by addition of BCMA-His antigen (1 μg/mL, 100 μL/well) and incubation at 37° C. for 1 hour. The ELISA plate was washed with PBS-0.1% Tween 20, followed by addition of HRP mouse anti-his IgG (Beijing ComWin Biotech Co., Ltd., cw0285M) and incubation at 37° C. for 1 hour. The ELISA plate was washed with PBS-0.1% Tween 20, and OPD substrate color development solution was added. The color development was terminated with 1 M H2SO4 after 5-10 minutes.

[3] = target: T2, BCMA on the surface of NCI-H929 human …; experiment: flow cytometry on NCI-H929 cells, goat anti-human IgG-FITC
Protocol: NCI-H929 human plasma cell leukemia cells (Cell Resource Center, Institute of Basic Medicine, Chinese Academy of Medical Sciences) in logarithmic growth phase were harvested, centrifuged, and resuspended in PBS buffer containing 1% BSA to 2×10⁶ cells/mL, and plated at 100 μL/well in 96-well V bottom plates. […] Next, the cells were washed three times with 200 μL of PBS solution, and suspended in 100 μL of PBS solution. Thereafter, the FITC channel was detected by flow cytometer (ACEA, Novocyte).

T3 sequence (P07766 23-207): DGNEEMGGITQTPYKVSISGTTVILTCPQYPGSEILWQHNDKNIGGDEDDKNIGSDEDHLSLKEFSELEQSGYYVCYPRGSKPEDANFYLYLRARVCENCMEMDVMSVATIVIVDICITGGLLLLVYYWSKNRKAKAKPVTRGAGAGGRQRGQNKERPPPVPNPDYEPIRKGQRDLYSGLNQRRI

Row | Binder | EC50 (read off the curve) [1] [nM] | binding result [2] | EC50 (read off the curve) [3] [nM]
1 | B1 | ~1 | no binding | 
2 | B2 |  |  | ~8
3 | B3 |  |  | ~8
